We go through one substance from publication PMC6450106.

This experiment addresses CAP256 gp140-FL-IP (soluble Env) (HIV-1 (CAP256 SU, subtype C)). Kind of experiment: native gel or EMSA; NativePAGE Novex 3 to 12% bis-Tris gels, Coomassie stain or anti-gp120 blot, molecular weight against NativeMark standard; protein after GNL affinity and SEC (Superdex 200 HiLoad 16/600). On the technique in general: In EMSA bound probe runs differently from free probe, usually more slowly.

The substance “CAP256 gp140-FL-IP (soluble Env) (domain or fragment)” had a stoichiometry N of 3.

For orientation: stoichiometry N means the number of molecules, sites or subunits per partner or assembly.
